One data set has as its target EPHB2 (UniProt P29323). Kind of data set: phosphorylation enrichment, bacterial display (enrichment ratio); higher = better substrate or ligand; peptides without Tyr show the background.
For a further data set, the target named is MERTK (UniProt Q12866). The data set is described as above.
A further data set concerns the target Fes (UniProt P07332). Described as above.
The next data set concerns AncSZ. The data set is described as above.
Another data set has as its target Jak2 (UniProt O60674). Described as above.
For a further data set, the target named is FGFR1 (UniProt P11362). The description is as above.
The target of another data set is Hck (UniProt P08631). The data set is described as above.
The next data set addresses EPHB1 (UniProt P54762). The description is as above.
The target in another data set is FGFR3 (UniProt P22607). The data set is described as above.
FGFR3, sequence (P22607 whole entry, looked up): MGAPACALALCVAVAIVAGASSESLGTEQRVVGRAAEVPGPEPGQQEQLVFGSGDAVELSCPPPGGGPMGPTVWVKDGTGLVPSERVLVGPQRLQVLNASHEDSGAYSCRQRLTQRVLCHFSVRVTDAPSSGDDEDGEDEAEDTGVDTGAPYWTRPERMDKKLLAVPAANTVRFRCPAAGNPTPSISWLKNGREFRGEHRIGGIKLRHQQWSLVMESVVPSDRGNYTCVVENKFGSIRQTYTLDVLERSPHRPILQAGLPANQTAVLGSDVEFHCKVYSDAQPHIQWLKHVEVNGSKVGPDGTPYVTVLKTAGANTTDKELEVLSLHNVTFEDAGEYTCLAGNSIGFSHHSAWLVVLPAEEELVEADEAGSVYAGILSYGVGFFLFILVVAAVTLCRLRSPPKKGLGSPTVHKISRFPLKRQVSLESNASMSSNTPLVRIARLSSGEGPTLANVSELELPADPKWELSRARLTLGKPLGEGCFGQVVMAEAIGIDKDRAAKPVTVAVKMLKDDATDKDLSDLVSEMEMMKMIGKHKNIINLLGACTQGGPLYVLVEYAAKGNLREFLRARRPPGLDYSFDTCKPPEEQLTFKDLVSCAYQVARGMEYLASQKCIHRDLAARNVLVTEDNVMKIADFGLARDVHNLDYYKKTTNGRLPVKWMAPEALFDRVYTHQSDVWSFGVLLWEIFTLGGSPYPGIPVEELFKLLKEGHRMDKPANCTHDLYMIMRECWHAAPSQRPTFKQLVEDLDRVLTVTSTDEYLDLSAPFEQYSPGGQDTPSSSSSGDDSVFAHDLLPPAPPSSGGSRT
Another data set concerns c-Abl (mouse). Described as above.
The next data set deals with c-Src. Described as above.
For a further data set, the target named is Fyn (UniProt P06241). The description is as above.
A further data set has as its system Fer (mouse). The description is as above.
The next data set concerns the target SHP2-C SH2. Briefly: SH2 binding enrichment of the phosphorylated peptide, bacterial display (enrichment ratio); higher = better substrate or ligand; peptides without Tyr show the background.
The next data set has as its target Grb2 SH2 (UniProt P62993). Described as above.
The target of a further data set is c-Src SH2. The description is as above.
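Throughout, for SH2 binding enrichment of the phosphorylated peptide, bacterial display: peptide library displayed on the E. coli surface as eCPX fusions, selected cells deep-sequenced, score is each peptide's frequency after selection divided by its frequency in the input.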
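Throughout, for phosphorylation enrichment, bacterial display: 11-residue human phosphosite peptides and single-mutation variants displayed on the E. coli surface, counted by deep sequencing, each peptide's frequency after selection divided by its frequency in the unselected input library; frequency after pTyr selection over input frequency; kinase dosed for 20-30% of maximal phosphorylation in three min.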

EPHB1, sequence (P54762 whole entry, looked up): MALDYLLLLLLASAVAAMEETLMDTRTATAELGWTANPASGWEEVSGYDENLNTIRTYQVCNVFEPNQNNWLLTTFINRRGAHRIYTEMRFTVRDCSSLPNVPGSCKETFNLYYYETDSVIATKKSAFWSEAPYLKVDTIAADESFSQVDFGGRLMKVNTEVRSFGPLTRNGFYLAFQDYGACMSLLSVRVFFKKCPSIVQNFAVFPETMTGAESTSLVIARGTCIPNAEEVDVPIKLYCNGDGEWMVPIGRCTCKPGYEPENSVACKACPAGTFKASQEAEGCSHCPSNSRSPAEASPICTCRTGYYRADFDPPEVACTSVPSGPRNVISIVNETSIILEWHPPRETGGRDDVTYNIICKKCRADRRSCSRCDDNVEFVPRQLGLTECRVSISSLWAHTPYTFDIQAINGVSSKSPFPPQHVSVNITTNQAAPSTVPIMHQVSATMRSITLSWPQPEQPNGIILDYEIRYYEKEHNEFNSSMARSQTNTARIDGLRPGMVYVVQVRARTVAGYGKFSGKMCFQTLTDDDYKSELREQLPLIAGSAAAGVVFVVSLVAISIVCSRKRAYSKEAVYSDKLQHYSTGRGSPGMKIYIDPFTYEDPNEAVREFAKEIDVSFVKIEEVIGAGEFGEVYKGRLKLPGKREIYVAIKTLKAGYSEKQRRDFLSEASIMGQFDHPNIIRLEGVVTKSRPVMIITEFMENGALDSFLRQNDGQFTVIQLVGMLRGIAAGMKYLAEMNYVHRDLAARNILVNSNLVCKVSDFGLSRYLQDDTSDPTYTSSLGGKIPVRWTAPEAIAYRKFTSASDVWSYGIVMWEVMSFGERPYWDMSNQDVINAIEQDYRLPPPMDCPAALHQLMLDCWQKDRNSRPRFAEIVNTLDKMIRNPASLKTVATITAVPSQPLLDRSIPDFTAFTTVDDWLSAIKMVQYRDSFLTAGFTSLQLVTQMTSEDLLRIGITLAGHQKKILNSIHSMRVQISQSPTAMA
EPHB2, sequence (P29323 whole entry, looked up): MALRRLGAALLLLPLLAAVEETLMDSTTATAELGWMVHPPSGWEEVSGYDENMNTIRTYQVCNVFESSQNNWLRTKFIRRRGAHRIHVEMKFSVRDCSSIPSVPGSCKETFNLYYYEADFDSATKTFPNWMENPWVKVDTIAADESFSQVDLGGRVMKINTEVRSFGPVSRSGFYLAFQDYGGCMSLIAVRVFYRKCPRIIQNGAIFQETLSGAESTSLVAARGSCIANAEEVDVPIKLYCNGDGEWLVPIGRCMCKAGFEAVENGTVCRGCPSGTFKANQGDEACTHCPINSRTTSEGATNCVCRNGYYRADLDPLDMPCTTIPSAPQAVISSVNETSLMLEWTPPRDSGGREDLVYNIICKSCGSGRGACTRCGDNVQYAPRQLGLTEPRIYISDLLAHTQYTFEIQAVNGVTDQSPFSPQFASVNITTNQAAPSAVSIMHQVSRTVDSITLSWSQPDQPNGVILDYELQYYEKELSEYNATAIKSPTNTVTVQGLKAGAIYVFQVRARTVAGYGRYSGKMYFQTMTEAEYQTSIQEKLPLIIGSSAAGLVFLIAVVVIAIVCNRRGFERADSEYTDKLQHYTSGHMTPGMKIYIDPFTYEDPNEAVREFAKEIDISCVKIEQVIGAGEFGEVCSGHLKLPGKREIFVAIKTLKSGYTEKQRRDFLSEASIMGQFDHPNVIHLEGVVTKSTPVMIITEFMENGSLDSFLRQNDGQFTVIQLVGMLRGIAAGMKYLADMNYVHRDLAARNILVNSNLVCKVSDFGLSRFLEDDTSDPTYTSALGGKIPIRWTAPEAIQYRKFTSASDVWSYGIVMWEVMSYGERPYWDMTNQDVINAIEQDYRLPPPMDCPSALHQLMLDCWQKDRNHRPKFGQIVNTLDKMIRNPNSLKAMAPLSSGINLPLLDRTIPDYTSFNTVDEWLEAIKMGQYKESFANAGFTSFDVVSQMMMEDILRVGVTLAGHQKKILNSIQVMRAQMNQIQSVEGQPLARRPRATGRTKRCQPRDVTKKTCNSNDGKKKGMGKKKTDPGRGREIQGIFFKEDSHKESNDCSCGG
MERTK, sequence (Q12866 whole entry, looked up): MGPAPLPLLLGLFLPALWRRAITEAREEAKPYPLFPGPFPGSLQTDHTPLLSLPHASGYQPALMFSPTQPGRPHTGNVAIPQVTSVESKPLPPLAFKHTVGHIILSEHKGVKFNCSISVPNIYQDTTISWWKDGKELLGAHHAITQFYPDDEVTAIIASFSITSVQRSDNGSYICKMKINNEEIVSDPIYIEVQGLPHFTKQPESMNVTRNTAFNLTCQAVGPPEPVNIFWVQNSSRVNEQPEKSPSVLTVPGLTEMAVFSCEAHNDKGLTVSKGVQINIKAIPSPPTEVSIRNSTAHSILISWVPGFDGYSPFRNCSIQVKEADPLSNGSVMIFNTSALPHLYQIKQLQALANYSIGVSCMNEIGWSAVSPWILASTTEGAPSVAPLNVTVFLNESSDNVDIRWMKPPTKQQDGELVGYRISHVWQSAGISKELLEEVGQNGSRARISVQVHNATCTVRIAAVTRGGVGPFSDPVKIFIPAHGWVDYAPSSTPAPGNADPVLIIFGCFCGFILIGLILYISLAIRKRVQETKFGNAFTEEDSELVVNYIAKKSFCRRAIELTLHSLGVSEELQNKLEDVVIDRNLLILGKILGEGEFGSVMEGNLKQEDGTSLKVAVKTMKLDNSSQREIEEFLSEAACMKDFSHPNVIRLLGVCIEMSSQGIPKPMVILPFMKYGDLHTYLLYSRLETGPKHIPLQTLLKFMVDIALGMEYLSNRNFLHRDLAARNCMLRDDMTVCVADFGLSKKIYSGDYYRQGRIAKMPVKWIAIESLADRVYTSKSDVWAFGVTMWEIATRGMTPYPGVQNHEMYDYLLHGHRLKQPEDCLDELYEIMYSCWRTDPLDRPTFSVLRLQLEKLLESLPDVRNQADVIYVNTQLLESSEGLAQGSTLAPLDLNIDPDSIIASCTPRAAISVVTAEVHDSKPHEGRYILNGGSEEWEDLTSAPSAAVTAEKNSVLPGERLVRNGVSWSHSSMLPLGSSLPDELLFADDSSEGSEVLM
Fes, sequence (P07332 whole entry, looked up): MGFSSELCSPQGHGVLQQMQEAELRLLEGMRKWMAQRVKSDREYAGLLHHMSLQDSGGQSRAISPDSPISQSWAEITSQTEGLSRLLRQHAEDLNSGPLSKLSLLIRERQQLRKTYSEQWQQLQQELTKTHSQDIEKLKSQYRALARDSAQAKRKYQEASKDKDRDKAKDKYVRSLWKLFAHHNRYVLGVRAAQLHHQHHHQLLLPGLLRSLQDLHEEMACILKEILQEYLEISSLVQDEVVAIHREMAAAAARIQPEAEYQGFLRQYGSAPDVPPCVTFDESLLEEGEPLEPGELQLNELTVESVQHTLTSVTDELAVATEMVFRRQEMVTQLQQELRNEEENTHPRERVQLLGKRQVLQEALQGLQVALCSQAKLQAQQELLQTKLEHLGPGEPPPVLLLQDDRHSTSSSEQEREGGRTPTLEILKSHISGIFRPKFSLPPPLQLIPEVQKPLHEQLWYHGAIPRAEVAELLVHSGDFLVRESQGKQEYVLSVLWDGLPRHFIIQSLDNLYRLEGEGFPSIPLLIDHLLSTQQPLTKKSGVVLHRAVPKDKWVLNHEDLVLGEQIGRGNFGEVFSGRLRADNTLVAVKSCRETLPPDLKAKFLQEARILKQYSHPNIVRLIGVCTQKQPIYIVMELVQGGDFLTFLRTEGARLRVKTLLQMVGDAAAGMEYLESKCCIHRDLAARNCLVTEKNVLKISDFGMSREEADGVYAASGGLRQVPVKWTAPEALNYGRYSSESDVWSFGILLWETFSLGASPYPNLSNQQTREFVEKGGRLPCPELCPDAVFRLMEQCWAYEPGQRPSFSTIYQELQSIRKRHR
Grb2 SH2, sequence (P62993 whole entry, looked up): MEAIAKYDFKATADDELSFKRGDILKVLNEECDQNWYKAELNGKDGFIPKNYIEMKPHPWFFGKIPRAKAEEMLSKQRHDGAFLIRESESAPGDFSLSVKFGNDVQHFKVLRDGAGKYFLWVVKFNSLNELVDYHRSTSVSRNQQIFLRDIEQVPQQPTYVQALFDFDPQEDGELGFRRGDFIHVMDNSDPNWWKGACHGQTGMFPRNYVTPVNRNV

With IRTDAYVRAMT [RPE65_Y89], the phosphorylation enrichment came to 0.458 with EPHB2; 0.402 in the data set with MERTK; 0.605 with Fes; 0.515 in the data set on AncSZ; 0.481 with Jak2; 0.444 with FGFR1. Besides, the phosphorylation enrichment with Hck stood at 0.414; with EPHB1, 0.438; with FGFR3, 0.482; in the data set with c-Abl (mouse), 0.522; in the data set with c-Src, 0.382; with Fyn, 0.463. Also, the phosphorylation enrichment in the data set on Fer (mouse) is 0.398. The SH2 binding enrichment with SHP2-C SH2 was 0.527; in the data set with Grb2 SH2 it was 0.761; with c-Src SH2, 0.467.
Consider ISKILYHIIKG [CDH17_Y489_S484I], for which the phosphorylation enrichment with EPHB2 stood at 0.535; with MERTK, 1.11; with Fes, 0.823; in the data set on AncSZ, 0.779; in the data set with Jak2, 0.783; with FGFR1, 0.651. For the same sequence, the phosphorylation enrichment with Hck was found to be 0.508; with EPHB1 it was 0.679; with FGFR3, 0.601; in the data set on c-Abl (mouse) it was 0.601; in the data set with c-Src it was 0.551; in the data set with Fyn, 0.449. In addition, the phosphorylation enrichment with Fer (mouse) was 0.379. Also, the SH2 binding enrichment with SHP2-C SH2 was found to be 2; in the data set with Grb2 SH2 it was 1.75; with c-Src SH2 it was 3.02.
Turning to ISKQGYDEAGP [ACTC1_Y364_E363G], the phosphorylation enrichment with EPHB2 worked out at 0.532; in the data set with MERTK, 0.666; with Fes, 1.01; in the data set with AncSZ, 0.897; with Jak2 it was 0.931; in the data set with FGFR1 it was 0.539. Further, the phosphorylation enrichment with Hck amounted to 0.572; with EPHB1, 0.601; with FGFR3, 0.567; in the data set on c-Abl (mouse) it was 0.793; in the data set with c-Src, 0.541; in the data set with Fyn, 0.452. Further, the phosphorylation enrichment with Fer (mouse) came out at 0.507. In addition, the SH2 binding enrichment with SHP2-C SH2 came to 0.613; with Grb2 SH2, 0.916; with c-Src SH2, 1.42.
With ISRDVYSTDFF [NTRK2_Y702_M697I_YF], the phosphorylation enrichment worked out at 0.819 with EPHB2; 5.74 with MERTK; 0.929 with Fes; 0.903 with AncSZ; 0.785 with Jak2; 0.934 in the data set with FGFR1. The phosphorylation enrichment with Hck is 1.35; with EPHB1, 0.866; with FGFR3 it was 0.855; in the data set on c-Abl (mouse), 0.666; in the data set with c-Src it was 2.84; with Fyn, 3.12. In addition, the phosphorylation enrichment in the data set on Fer (mouse) was found to be 0.568. For the same sequence, the SH2 binding enrichment with SHP2-C SH2 is 0.715; with Grb2 SH2 it was 0.712; in the data set with c-Src SH2 it was 0.505.
Turning to ITLKGYNLSKS [GNPTAB_Y728], the phosphorylation enrichment with EPHB2 amounted to 0.346; in the data set with MERTK it was 0.367; in the data set with Fes, 0.686; in the data set with AncSZ, 0.601; with Jak2, 0.482; with FGFR1, 0.397. Moreover, the phosphorylation enrichment with Hck was determined as 0.426; with EPHB1 it was 0.342; with FGFR3, 0.402; in the data set with c-Abl (mouse), 0.317; with c-Src it was 0.451; in the data set with Fyn it was 0.355. For the same sequence, the phosphorylation enrichment with Fer (mouse) came out at 0.414. Besides, the SH2 binding enrichment with SHP2-C SH2 was found to be 0.484; with Grb2 SH2, 0.614; with c-Src SH2, 0.321.
Consider ITNLLYHVVGW [GBA_Y412], for which the phosphorylation enrichment in the data set with EPHB2 turned out to be 3.59; in the data set with MERTK, 7.56; with Fes it was 1.32; with AncSZ it was 1.18; in the data set with Jak2 it was 3; with FGFR1, 6.87. In addition, the phosphorylation enrichment with Hck amounted to 5.96; in the data set with EPHB1, 5.73; with FGFR3, 5.65; in the data set with c-Abl (mouse) it was 2.9; in the data set on c-Src it was 4.6; with Fyn, 4.07. Also, the phosphorylation enrichment in the data set with Fer (mouse) worked out at 2.79. Further, the SH2 binding enrichment in the data set with SHP2-C SH2 is 0.954; in the data set with Grb2 SH2 it was 0.998; in the data set with c-Src SH2 it was 0.962.
Regarding ITRDIYETDYY [INSR_Y1185_M1180I], the phosphorylation enrichment is 1.55 with EPHB2; 0.828 in the data set with MERTK; 1.47 with Fes; 2.67 with AncSZ; 1.09 with Jak2; 2.03 with FGFR1. Moreover, the phosphorylation enrichment in the data set with Hck is 1.19; in the data set with EPHB1, 1.45; with FGFR3, 1.95; with c-Abl (mouse), 0.722; in the data set on c-Src it was 2.76; in the data set with Fyn, 1.58. In addition, the phosphorylation enrichment in the data set on Fer (mouse) was 0.72. Also, the SH2 binding enrichment with SHP2-C SH2 is 0.695; with Grb2 SH2, 0.854; with c-Src SH2, 1.1.
